Results on 3 substances are retold here after US10239937.

Experiment [1] has as its target C3 fragments (iC3b, C3dg and C3d) of human complement component C3, deposited on cells or tissue (human) (UniProt P01024). Description: flow cytometry, rabbit RBCs + human serum + TT30 1.4 µM, time 0, panel A5-1-0; isotype control for anti-C3d [Time: 0]. Background: A flow cytometer gives signals particle by particle.
For experiment [2], the target named is TT30 (human). As to the kind of experiment: flow cytometry, rabbit RBCs + human serum + TT30 1.4 µM, time 0, panel A5-2-0; isotype control for HB5 [Time: 0].
TT30 (human), sequence (chain, as listed by the source limits assumed): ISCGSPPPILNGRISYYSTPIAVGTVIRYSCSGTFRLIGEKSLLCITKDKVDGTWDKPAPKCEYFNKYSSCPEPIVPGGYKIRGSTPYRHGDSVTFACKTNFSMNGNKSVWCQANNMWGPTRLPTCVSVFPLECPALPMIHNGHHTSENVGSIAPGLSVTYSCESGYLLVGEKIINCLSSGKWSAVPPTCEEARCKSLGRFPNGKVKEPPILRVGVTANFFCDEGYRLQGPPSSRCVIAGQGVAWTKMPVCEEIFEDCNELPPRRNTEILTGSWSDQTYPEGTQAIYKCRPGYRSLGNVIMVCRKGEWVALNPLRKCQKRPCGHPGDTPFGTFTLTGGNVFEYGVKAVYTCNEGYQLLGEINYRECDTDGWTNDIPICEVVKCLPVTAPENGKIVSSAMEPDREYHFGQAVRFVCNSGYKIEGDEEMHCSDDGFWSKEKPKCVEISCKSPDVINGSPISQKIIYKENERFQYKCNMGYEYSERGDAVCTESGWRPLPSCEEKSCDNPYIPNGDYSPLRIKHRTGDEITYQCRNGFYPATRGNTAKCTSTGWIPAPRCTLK
In experiment [3] the target is TT30 (human). As to the kind of experiment: flow cytometry, rabbit RBCs + human serum + TT30 0.46 µM, 2 hr, panel A8-2-2; isotype control for HB5 [Time: 2 hr].
Experiment [4] concerns the target TT30 (human). Description: flow cytometry, rabbit RBCs + human serum + TT30 0.46 µM, 4 hr, panel A8-4-2; isotype control for HB5 [Time: 4 hr].
The target of experiment [5] is TT30 (human). Description: flow cytometry, rabbit RBCs + human serum + TT30 0.46 µM, 24 hr, panel A8-24-2; isotype control for HB5 [Time: 24 hr].
In experiment [6] the target is C3 fragments (iC3b, C3dg and C3d) of human complement component C3, deposited on cells or tissue (human) (UniProt P01024). Description: flow cytometry, rabbit RBCs + human serum, no TT30, panel A12-2-0.
For experiment [7] the target is unchanged. Description: flow cytometry, rabbit RBCs + human serum, no TT30, panel A12-3-0.
The target is the same in experiment [8]. As to the kind of experiment: flow cytometry, rabbit RBCs + human serum + TT30 1.4 µM, time 0, panel A5-2-0 [Time: 0].
Experiment [9] has the same target. Description: flow cytometry, rabbit RBCs + human serum + TT30 1.4 µM, time 0, panel A5-3-0 [Time: 0].
For experiment [10] the target is unchanged. As to the kind of experiment: flow cytometry, rabbit RBCs + human serum + TT30 0.46 µM, time 0, panel A8-2-0 [Time: 0].
For experiment [11] the target is unchanged. Description: flow cytometry, rabbit RBCs + human serum + TT30 0.46 µM, time 0, panel A8-3-0 [Time: 0].
Experiment [12] has the same target. As to the kind of experiment: flow cytometry, rabbit RBCs + human serum + TT30 0.06 µM, time 0, panel A11-2-0 [Time: 0].
For experiment [13] the target is unchanged. As to the kind of experiment: flow cytometry, rabbit RBCs + human serum + TT30 0.06 µM, time 0, panel A11-3-0 [Time: 0].
The target is the same in experiment [14]. Description: flow cytometry, rabbit RBCs + human serum + TT30 0.46 µM, 2 hr, panel A8-2-2 [Time: 2 hr].
For experiment [15] the target is unchanged. Description: flow cytometry, rabbit RBCs + human serum + TT30 0.46 µM, 2 hr, panel A8-2-3 [Time: 2 hr].
For experiment [16] the target is unchanged. As to the kind of experiment: flow cytometry, rabbit RBCs + human serum + TT30 0.46 µM, 4 hr, panel A8-4-2 [Time: 4 hr].
Experiment [17] has the same target. As to the kind of experiment: flow cytometry, rabbit RBCs + human serum + TT30 0.46 µM, 4 hr, panel A8-4-3 [Time: 4 hr].
For experiment [18] the target is unchanged. As to the kind of experiment: flow cytometry, rabbit RBCs + human serum + TT30 0.46 µM, 24 hr, panel A8-24-2 [Time: 24 hr].
The target is the same in experiment [19]. As to the kind of experiment: flow cytometry, rabbit RBCs + human serum + TT30 0.46 µM, 24 hr, panel A8-24-3 [Time: 24 hr].
The target is the same in experiment [20]. As to the kind of experiment: flow cytometry, rabbit RBCs + human serum + TT30 3.7 µM, time 0, panel A2-2-0; filing: no C3 fragments or TT30 on the cells at this concentration [Time: 0].
Experiment [21] shares this target. Description: flow cytometry, rabbit RBCs + human serum + TT30 3.7 µM, time 0, panel A2-3-0; filing: no C3 fragments or TT30 on the cells at this concentration [Time: 0].

UniProt P01024, sequence (P01024 1002-1303 limits assumed): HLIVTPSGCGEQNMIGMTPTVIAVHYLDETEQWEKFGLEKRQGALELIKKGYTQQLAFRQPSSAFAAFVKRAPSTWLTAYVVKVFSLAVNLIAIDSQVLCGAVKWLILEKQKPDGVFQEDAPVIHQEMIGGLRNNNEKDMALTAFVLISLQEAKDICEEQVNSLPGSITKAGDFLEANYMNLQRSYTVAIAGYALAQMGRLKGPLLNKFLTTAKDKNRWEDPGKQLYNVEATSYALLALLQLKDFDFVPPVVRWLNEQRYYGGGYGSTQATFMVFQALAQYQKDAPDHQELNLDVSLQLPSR

As for IgG1-APC (antibody), the % of gated cells in Q4-UR (IgG1-APC+, HB5-FITC+) in [1] amounted to 0.4%.

With IgG2a-FITC (antibody), the % of gated cells in Q4-LR (C3d-APC-, IgG2a-FITC+) with TT30 (human) [2] was found to be 0.5%; with TT30 (human) [3], 0.3%; with TT30 (human) [4], 0.3%; with TT30 (human) [5], 0.3%. The % of gated cells in Q4-UR (C3d-APC+, IgG2a-FITC+) in the experiment with TT30 (human) [3] and with TT30 (human) [5] was 0.3% in each case.

As for C3d (A702)-APC (antibody), the % of gated cells in Q4-UL (C3d-APC+, IgG2a-FITC-) in experiment [6] was found to be 100%; in experiment [8], 84.9%; in experiment [10], 84.8%; in [12] it was 90.3%; in experiment [14], 89.8%; in [16] it was 93.4%. For the same substance, the % of gated cells in Q4-UL (C3d-APC+, IgG2a-FITC-) in [18] was 97.9%; in [20], 2.4%. Also, the % of gated cells in Q4-UR (C3d-APC+, IgG2a-FITC+) in experiment [6] was found to be 0%; in experiment [8], 0%; in experiment [10], 0%; in experiment [12], 0%; in experiment [14], 0.3%; in experiment [16], 0%. Besides, the % of gated cells in Q4-UR (C3d-APC+, IgG2a-FITC+) in experiment [18] amounted to 0.3%; in [20], 0%. The % of gated cells in Q4-UL (C3d-APC+, HB5-FITC-) in experiment [7] was 94.9%; in experiment [9], 81%; in experiment [11], 11.5%; in [13], 78.9%; in experiment [15], 25.3%; in [17], 38.2%. The % of gated cells in Q4-UL (C3d-APC+, HB5-FITC-) in [19] was determined as 51.7%; in experiment [21], 0%. For the same substance, the % of gated cells in Q4-UR (C3d-APC+, HB5-FITC+) in experiment [7] was 2.6%; in [9], 4%; in experiment [11], 69.8%; in experiment [13], 5.3%; in [15], 67.5%; in [17], 54.7%. In addition, the % of gated cells in Q4-UR (C3d-APC+, HB5-FITC+) is 44.4% in experiment [19] and 0% in experiment [21].
